According to patent publication US20230322953A1 (HARBOUR BIOMED SHANGHAI, published 2023):

How the values were obtained:
[1] = molecular target: T1, cynomolgus monkey BCMA (ACRO Biosystems, #BCA-C82F4) (cynomolgus monkey, UniProt A0A2K5UD97 1-53); test: BLI, Octet Red96e
T1 construct: bought; also called cyBCMA.Fc

[2] = molecular target: T2, cynomolgus monkey BCMA on cells (HEK293T/cyno BCMA) (cynomolgus monkey, UniProt A0A2K5UD97 1-183); test: FACS, HEK293T/cyno BCMA cells
T2 construct: whole, on cells
T2 sequence (A0A2K5UD97 entry or part of it): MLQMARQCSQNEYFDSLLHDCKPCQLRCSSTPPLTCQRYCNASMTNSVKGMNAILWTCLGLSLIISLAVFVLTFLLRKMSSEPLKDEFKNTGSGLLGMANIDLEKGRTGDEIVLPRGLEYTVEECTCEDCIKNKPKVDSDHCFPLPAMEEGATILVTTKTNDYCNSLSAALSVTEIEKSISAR

T1 sequence (A0A2K5UD97 entry or part of it): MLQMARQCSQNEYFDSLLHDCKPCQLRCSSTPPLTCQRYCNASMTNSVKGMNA

B1: PR002199, BCMA×CD3 bispecific antibody derived from WO2019133761A1 (bispecific antibody, human IgG1, kappa, L234A L235A)
chain 1: not shown
chain 2: EVQLVESGGGLVQPGRSLRLSCAASGFTFDDYAMHWVRQAPGKGLEWVSGISWNSGSIGYADSVKGRFTISRDNAKNSLYLQMNSLRAEDTALYYCAKDSRGYGDYRLGGAYWGQGTLVTVSSASTKGPSVFPLAPSSKSTSGGTAALGCLVKDYFPEPVTVSWNSGALTSGVHTFPAVLQSSGLYSLSSVVTVPSSSLGTQTYICNVNHKPSNTKVDKKVEPKSCDKTHTCPPCPAPEAAGGPSVFLFPPKPKDTLMISRTPEVTCVVVDVSHEDPEVKFNWYVDGVEVHNAKTKPREEQYNSTYRVVSVLTVLHQDWLNGKEYKCKVSNKALGAPIEKTISKAKGQPREPQVYTLPPCREEMTKNQVSLWCLVKGFYPSDIAVEWESNGQPENNYKTTPPVLDSDGSFFLYSKLTVDKSRWQQGNVFSCSVMHEALHNHYTQKSLSLSPGK
chain 3: EVQLLESGGGLVQPGGSLRLSCAASGFTVSSYGMSWVRQAPGKGPEWVSGIRGSDGSTYYADSVKGRFTISRDNSKNTLYLQMNSLRAEDTAVYYCAKQGENDGPFDHRGQGTLVTVSSGGGGSEVQLLESGGGLVQPGGSLRLSCAASGFTVSSYGMSWVRQAPGKGPEWVSGIRGSDGSTYYADSVKGRFTISRDNSKNTLYLQMNSLRAEDTAVYYCAKQGENDGPFDHRGQGTLVTVSSASEPKSSDKTHTCPPCPAPEAAGGPSVFLFPPKPKDTLMISRTPEVTCVVVDVSHEDPEVKFNWYVDGVEVHNAKTKPREEQYNSTYRVVSVLTVLHQDWLNGKEYKCKVSNKALGAPIEKTISKAKGQPREPQVCTLPPSREEMTKNQVSLSCAVKGFYPSDIAVEWESNGQPENNYKTTPPVLDSDGSFFLVSKLTVDKSRWQQGNVFSCSVMHEALHNHYTQKSLSLSPGK
notes: also called positive control 2
B1: no binding [1]; no binding [2].
